Reference: publication PMC4090178, “Structural and Biochemical Characterization of Human PR70 in Isolation and in Complex with the Scaffolding Subunit of Protein Phosphatase 2A” (PLoS ONE, 2014)

What was measured:
Conditions in all cases: both partners purified
A α (HEAT1–15) = biological target: T1, A α (HEAT1–15) (UniProt P30153 1-589); experiment: SAXS; complex purified on Superdex 200 in 20 mM Tris pH 7.5, 20 mM NaCl, 2 mM CaCl2, 0.5 mM TCEP, 1% glycerol at 15°C just prior to SAXS; 1.5 mg/ml
T1 construct: PP2A scaffolding subunit A, α isoform, product of PPP2R1A; HEAT repeats 1–15; calculated molecular weight 65.3 kD; also called full length A-subunit; scaffolding A subunit; source: E. coli BL21(DE3), purified (IMAC, TEV cleavage, gel filtration); not shown: His tag, N-terminal, cleaved

PR70 (25–575) = biological target: T2, PR70 (25–575) (human, UniProt Q9Y5P8 25-575); experiment: ITC; B''-constructs at 20–40 µM in the cell titrated with 200–300 µM Aα or Aβ constructs; 15°C; 20 mM Tris pH 7.5, 200 mM NaCl, 2 mM CaCl2; 1:1 binding model
T2 construct: PR70 (B''β), regulatory B'' subunit of PP2A, human, product of PPP2R3B; also called B''/PR70; source: E. coli BL21(DE3), purified (IMAC, TEV cleavage, gel filtration); not shown: His tag, N-terminal, cleaved
T2 sequence (looked up): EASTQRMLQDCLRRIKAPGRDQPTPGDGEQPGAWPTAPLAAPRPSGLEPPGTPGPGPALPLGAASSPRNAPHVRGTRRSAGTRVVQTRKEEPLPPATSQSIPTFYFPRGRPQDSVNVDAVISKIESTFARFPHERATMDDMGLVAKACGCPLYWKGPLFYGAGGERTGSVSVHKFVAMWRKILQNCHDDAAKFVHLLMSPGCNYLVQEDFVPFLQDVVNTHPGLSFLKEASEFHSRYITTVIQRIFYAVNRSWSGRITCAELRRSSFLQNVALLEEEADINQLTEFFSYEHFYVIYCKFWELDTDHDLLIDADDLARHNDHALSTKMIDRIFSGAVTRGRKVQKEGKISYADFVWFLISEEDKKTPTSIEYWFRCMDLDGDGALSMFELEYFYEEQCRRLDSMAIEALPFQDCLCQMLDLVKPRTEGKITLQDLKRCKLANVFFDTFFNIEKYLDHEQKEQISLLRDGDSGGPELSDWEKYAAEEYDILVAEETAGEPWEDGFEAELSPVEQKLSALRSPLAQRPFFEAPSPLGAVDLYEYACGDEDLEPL

PR70 (105–575) = biological target: T3, PR70 (105–575) (human, UniProt Q9Y5P8 105-575); experiment: as above
T3 construct: PR70 (B''β), regulatory B'' subunit of PP2A, human, product of PPP2R3B; source: E. coli BL21(DE3), purified (IMAC, TEV cleavage, gel filtration); not shown: His tag, N-terminal, cleaved
T3 sequence (looked up): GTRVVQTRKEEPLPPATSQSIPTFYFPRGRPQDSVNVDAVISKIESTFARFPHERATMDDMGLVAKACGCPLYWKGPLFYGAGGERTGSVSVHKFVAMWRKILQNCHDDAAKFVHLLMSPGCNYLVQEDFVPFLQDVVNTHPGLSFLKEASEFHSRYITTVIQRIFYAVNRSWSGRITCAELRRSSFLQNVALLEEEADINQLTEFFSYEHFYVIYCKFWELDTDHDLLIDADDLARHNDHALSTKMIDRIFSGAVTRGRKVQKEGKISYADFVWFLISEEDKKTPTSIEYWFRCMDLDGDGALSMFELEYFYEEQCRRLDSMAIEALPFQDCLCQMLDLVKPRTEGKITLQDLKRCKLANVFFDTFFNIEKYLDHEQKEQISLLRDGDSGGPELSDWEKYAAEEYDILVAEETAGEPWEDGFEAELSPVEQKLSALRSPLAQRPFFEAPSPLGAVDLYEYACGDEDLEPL

[1] = biological target: T4, PR70 core fragment (residues 130–483) (human, UniProt Q9Y5P8 130-483); experiment: as above
T4 construct: PR70 (B''β), regulatory B'' subunit of PP2A, human, product of PPP2R3B; The crystal (PDB 4MEW) was of the selenomethionine-labelled protein alone; the model holds residues 134–481; also called PR70 core domain; source: E. coli BL21(DE3), purified (IMAC, TEV cleavage, gel filtration); not shown: His tag, N-terminal, cleaved
T4 sequence (looked up): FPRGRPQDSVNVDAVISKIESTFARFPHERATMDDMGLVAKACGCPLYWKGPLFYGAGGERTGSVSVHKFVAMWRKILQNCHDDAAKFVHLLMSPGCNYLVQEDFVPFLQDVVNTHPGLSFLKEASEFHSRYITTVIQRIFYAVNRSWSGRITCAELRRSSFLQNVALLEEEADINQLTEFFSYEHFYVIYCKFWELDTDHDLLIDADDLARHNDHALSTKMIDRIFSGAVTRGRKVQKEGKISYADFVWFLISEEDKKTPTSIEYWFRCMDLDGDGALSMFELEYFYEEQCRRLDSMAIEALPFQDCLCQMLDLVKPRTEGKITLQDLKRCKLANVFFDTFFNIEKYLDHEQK

PR70 (130–504) = biological target: T5, PR70 (130–504) (human, UniProt Q9Y5P8 130-504); experiment: as above
T5 construct: PR70 (B''β), regulatory B'' subunit of PP2A, human, product of PPP2R3B; residues 130–504; source: E. coli BL21(DE3), purified (IMAC, TEV cleavage, gel filtration); not shown: His tag, N-terminal, cleaved
T5 sequence (looked up): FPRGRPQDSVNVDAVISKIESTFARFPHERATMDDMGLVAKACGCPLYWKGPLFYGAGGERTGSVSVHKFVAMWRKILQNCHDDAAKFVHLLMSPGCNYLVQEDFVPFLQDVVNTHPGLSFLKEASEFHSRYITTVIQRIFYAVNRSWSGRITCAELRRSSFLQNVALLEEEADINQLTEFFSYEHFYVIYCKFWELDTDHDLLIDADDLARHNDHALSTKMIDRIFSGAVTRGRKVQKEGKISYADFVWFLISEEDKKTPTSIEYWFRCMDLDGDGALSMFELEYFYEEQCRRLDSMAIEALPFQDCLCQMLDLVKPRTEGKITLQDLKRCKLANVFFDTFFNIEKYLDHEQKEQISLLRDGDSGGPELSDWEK

Row | Binder | binding result (A α (HEAT1–15)) | Kd (PR70 (25–575)) [nM] | dH (PR70 (25–575)) [kcal/mol] | stoichiometry N (PR70 (25–575)) | Kd (PR70 (105–575)) [nM] | dH (PR70 (105–575)) [kcal/mol] | stoichiometry N (PR70 (105–575)) | Kd [1] [nM] | Kd (PR70 (130–504)) [nM]
1 | PR70 (130–575) (domain or fragment, human, UniProt Q9Y5P8 130-575, looked up, PR70 (B''β), regulatory B'' subunit of PP2A, human, product of PPP2R3B; Used only for SAXS of the complex with the A-subunit; source: E. coli BL21(DE3), purified (IMAC, TEV cleavage, gel filtration); not shown: His tag, N-terminal, cleaved) FPRGRPQDSVNVDAVISKIESTFARFPHERATMDDMGLVAKACGCPLYWKGPLFYGAGGERTGSVSVHKFVAMWRKILQNCHDDAAKFVHLLMSPGCNYLVQEDFVPFLQDVVNTHPGLSFLKEASEFHSRYITTVIQRIFYAVNRSWSGRITCAELRRSSFLQNVALLEEEADINQLTEFFSYEHFYVIYCKFWELDTDHDLLIDADDLARHNDHALSTKMIDRIFSGAVTRGRKVQKEGKISYADFVWFLISEEDKKTPTSIEYWFRCMDLDGDGALSMFELEYFYEEQCRRLDSMAIEALPFQDCLCQMLDLVKPRTEGKITLQDLKRCKLANVFFDTFFNIEKYLDHEQKEQISLLRDGDSGGPELSDWEKYAAEEYDILVAEETAGEPWEDGFEAELSPVEQKLSALRSPLAQRPFFEAPSPLGAVDLYEYACGDEDLEPL | binds |  |  |  |  |  |  |  | 
2 | A α (HEAT1–8) (domain or fragment, UniProt P30153 1-321, looked up, PP2A scaffolding subunit A, α isoform, product of PPP2R1A; HEAT repeats 1–8 (C-terminal repeats deleted); also called construct spanning HEAT repeats 1–8; source: E. coli BL21(DE3), purified (IMAC, TEV cleavage, gel filtration); not shown: His tag, N-terminal, cleaved) MAAADGDDSLYPIAVLIDELRNEDVQLRLNSIKKLSTIALALGVERTRSELLPFLTDTIYDEDEVLLALAEQLGTFTTLVGGPEYVHCLLPPLESLATVEETVVRDKAVESLRAISHEHSPSDLEAHFVPLVKRLAGGDWFTSRTSACGLFSVCYPRVSSAVKAELRQYFRNLCSDDTPMVRRAAASKLGEFAKVLELDNVKSEIIPMFSNLASDEQDSVRLLAVEACVNIAQLLPQEDLEALVMPTLRQAAEDKSWRVRYMVADKFTELQKAVGPEITKTDLVPAFQNLMKDCEAEVRAAASHKVKEFCENLSADCRENV |  | 223 ± 21 | -19.1 ± 0.4 | 0.93 ± 0.02 | 158 ± 22 | -20.3 ± 0.2 | 0.99 ± 0.01 | > 100000 | > 100000
